Publication PMC7963221

Key:
Experiment in all cases: FACS
GD-Pangolin RBD = target: GD-Pangolin RBD
RaTG13 RBD = target: RaTG13 RBD
A021 RBD = target: A021 RBD
CS24 RBD = target: CS24 RBD
Civet 007-2004 RBD = target: Civet 007-2004 RBD
Frankfurt 1 RBD = target: Frankfurt 1 RBD
LYRa11 RBD = target: LYRa11 RBD
Rs4231 RBD = target: Rs4231 RBD
SHC014 RBD = target: SHC014 RBD
WIV1 RBD = target: WIV1 RBD

## CB6/LY-CoV16
GD-Pangolin RBD
  Kd: 2.15 nM
RaTG13 RBD
  Kd: 3.6 nM

## LY-CoV555
GD-Pangolin RBD
  Kd: 1.3 nM

## REGN10933
GD-Pangolin RBD
  Kd: 0.64 nM

## REGN10987
GD-Pangolin RBD
  Kd: 1.44 nM

## S309
A021 RBD
  Kd: 4.14 nM
CS24 RBD
  Kd: 2.52 nM
Civet 007-2004 RBD
  Kd: 3.75 nM
Frankfurt 1 RBD
  Kd: 3.5 nM
GD-Pangolin RBD
  Kd: 4.53 nM
LYRa11 RBD
  Kd: 4.53 nM
RaTG13 RBD
  Kd: 2.88 nM
Rs4231 RBD
  Kd: 3.77 nM
SHC014 RBD
  Kd: 3.78 nM
WIV1 RBD
  Kd: 3.89 nM
